Test results reported in patent publication US20170081400A1 (CEPHALON, published 2017).

Assays:
[1] = target: T1, human TL1A extracellular domain with N-terminal HIS and FLAG tag (human, UniProt O95150 72-251); experiment: SPR Run 5, Ab from supernatant captured on Protein A, TL1A 5 ug/mL, timepoint 220
T1 construct: the whole entry is named
T1 sequence: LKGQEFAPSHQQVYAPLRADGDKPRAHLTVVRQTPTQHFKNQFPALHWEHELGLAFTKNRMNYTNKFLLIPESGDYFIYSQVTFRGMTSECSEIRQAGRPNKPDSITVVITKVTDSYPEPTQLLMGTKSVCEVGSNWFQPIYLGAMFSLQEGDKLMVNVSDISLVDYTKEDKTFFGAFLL
From the text: (§1) 1.5. Antibody expression and antigen binding as determined by SPR. Using a CM5 sensor chip (GE Healthcare) Protein A (Pierce) was coupled to the chip surface using an amine coupling kit (GE Healthcare). Protein A was coupled on flow cell 1 and 2 (or alternatively 3 and 4) using a BIACORE® T200. […] The amount of supernatant or purified protein (as well as the concentration) injected during the capture stage varied between runs and is specified in the header of the Tables 3-11. At the end of injection of the supernatant or purified antibody the change in response units was measured. This value was reported as Capture Level in Tables 3-11. […] The response units were measured prior to the end of the dissociation phase. […] The sensorgrams were double referenced (flow cell 2 is subtracted from flow cell 1 and a buffer blank). As there were a large number of antibody variants to screen, these were screened across different runs (Tables 3-11). […] A summary of the conditions used in each run is below:
(§2) 2.1. […] In some experiment the antibodies were purified using Protein A chromatography (See 1.4) and purified antibodies were used in BIACORE® (GE Healthcare) experiments.

[2] = target: T1, human TL1A extracellular domain with …; experiment: SPR Run 5, Ab from supernatant captured on Protein A, TL1A 5 ug/mL, timepoint 44
From the text: as §1, §2

[3] = target: T2, human TL1A extracellular domain with N-terminal HIS and FLAG tag (human, UniProt O95150 72-251); experiment: SPR run 2; supernatant on Protein A; TL1A 10 ug/mL; timepoint 220
T2 construct: whole entry named. ~70 kDa fraction purified by gel filtration
T2 sequence: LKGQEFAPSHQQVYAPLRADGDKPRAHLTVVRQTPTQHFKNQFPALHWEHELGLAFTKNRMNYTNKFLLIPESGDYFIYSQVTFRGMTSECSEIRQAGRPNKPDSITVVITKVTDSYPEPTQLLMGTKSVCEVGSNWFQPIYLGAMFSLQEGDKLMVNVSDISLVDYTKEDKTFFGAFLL
From the text: as §1, §2

[4] = target: T2, human TL1A extracellular domain with …; experiment: SPR run 2; supernatant on Protein A; TL1A 10 ug/mL; timepoint 44
From the text: as §1, §2

[5] = target: T3, human TL1A extracellular domain with N-terminal HIS and FLAG tag (human) (UniProt O95150); experiment: cell-based or functional assay
T3 sequence: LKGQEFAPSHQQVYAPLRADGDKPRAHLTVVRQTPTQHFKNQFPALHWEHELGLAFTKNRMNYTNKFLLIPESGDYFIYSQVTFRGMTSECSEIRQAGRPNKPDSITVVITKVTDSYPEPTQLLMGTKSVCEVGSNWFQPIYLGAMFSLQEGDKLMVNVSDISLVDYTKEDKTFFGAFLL

B1: 320-373 (antibody, human IgG1, name in Kabat numbering, V domains shown)
VH: QVQLVQSGAEVKKPGASVKVSCKASGYTFTSYDINWVRQAPGQGLEWMGWLNPNSGNTGYAQKFQGRVTMTADRSTSTAYMELSSLRSEDTAVYYCAREVPETAAFEYWGQGTLVTVSS
VL: QSVLTQPPSVSGAPGQRVTISCTSSSSDIGAGLGVHWYQQLPGTAPKLLIEGYYNRPSGVPDRFSGSKSGTSASLTITGLLPEDEGDYYCQSYDGTLSQLFGGGTKLTVLG
notes: human IgG1, lambda
TL1A Binding Level (Late) [1]: -1 RU
TL1A Binding Level (Early) [2]: -1 RU

B2: 320-382 (antibody, human IgG1, name in Kabat numbering, V domains shown)
VH: QVQLVQSGAEVKKPGASVKVSCKASGYTFTSYDINWVRQAPGQGLEWMGWLNPNSGNTGYAQKFQGRVTMTADRSTSTAYMELSSLRSEDTAVYYCAREVPETAAFEYWGQGTLVTVSS
VL: QSVLTQPPSVSGAPGQRVTISCTSSSSDIGAGLGVHWYQQLPGTAPKLLIEGYYNRPSGVPDRFSGSKSGTSASLTITGLLPEDEGDYYCQSYDGTLSAQFGGGTKLTVLG
notes: human IgG1, lambda
TL1A Binding Level (Late) [1]: 0 RU
TL1A Binding Level (Early) [2]: 0 RU

B3: 320-375 (antibody, human IgG1, name in Kabat numbering, V domains shown)
VH: QVQLVQSGAEVKKPGASVKVSCKASGYTFTSYDINWVRQAPGQGLEWMGWLNPNSGNTGYAQKFQGRVTMTADRSTSTAYMELSSLRSEDTAVYYCAREVPETAAFEYWGQGTLVTVSS
VL: QSVLTQPPSVSGAPGQRVTISCTSSSSDIGAGLGVHWYQQLPGTAPKLLIEGYYNRPSGVPDRFSGSKSGTSASLTITGLLPEDEGDYYCQSYDGTLSHLFGGGTKLTVLG
notes: human IgG1, lambda
TL1A Binding Level (Late) [1]: -1 RU
TL1A Binding Level (Early) [2]: -2 RU

B4: 320-229 (antibody, human IgG1, name in Kabat numbering, V domains shown)
VH: QVQLVQSGAEVKKPGASVKVSCKASGYTFTSYDINWVRQAPGQGLEWMGWLNPNSGNTGYAQKFQGRVTMTADRSTSTAYMELSSLRSEDTAVYYCAREVPETAAFEYWGQGTLVTVSS
VL: QSVLTQPPSVSGAPGQRVTISCTSSSKDIGAGLGVHWYQQLPGTAPKLLIEGYYNRPSGVPDRFSGSKSGTSASLTITGLLPEDEGDYYCQSYDGTLSALFGGGTKLTVLG
notes: human IgG1, lambda
TL1A Binding Level (Late) [3]: 251 RU
TL1A Binding Level (Early) [4]: 268 RU
Antibody IC50, TL1A induced caspase potency assay in TF-1 cells [5]: 0.04 mg/L
Fold improvement over 320-179, TL1A induced caspase potency assay in TF-1 cells [5]: 2 fold

B5: 320-376 (antibody, human IgG1, name in Kabat numbering, V domains shown)
VH: QVQLVQSGAEVKKPGASVKVSCKASGYTFTSYDINWVRQAPGQGLEWMGWLNPNSGNTGYAQKFQGRVTMTADRSTSTAYMELSSLRSEDTAVYYCAREVPETAAFEYWGQGTLVTVSS
VL: QSVLTQPPSVSGAPGQRVTISCTSSSSDIGAGLGVHWYQQLPGTAPKLLIEGYYNRPSGVPDRFSGSKSGTSASLTITGLLPEDEGDYYCQSYDGTLSKLFGGGTKLTVLG
notes: human IgG1, lambda
TL1A Binding Level (Late) [1]: 1 RU
TL1A Binding Level (Early) [2]: 3 RU

B6: 320-209 (antibody, human IgG1, name in Kabat numbering, V domains shown)
VH: QVQLVQSGAEVKKPGASVKVSCKASGYTFTSYDINWVRQAPGQGLEWMGWLNPNSGNTGYAQKFQGRVTMTADRSTSTAYMELSSLRSEDTAVYYCAREVPETAAFEYWGQGTLVTVSS
VL: QSVLTQPPSVSGAPGQRVTISCTSASSDIGAGLGVHWYQQLPGTAPKLLIEGYYNRPSGVPDRFSGSKSGTSASLTITGLLPEDEGDYYCQSYDGTLSALFGGGTKLTVLG
notes: human IgG1, lambda
TL1A Binding Level (Late) [3]: 200 RU
TL1A Binding Level (Early) [4]: 222 RU
Antibody IC50, TL1A induced caspase potency assay in TF-1 cells [5]: 0.04 mg/L
Fold improvement over 320-179, TL1A induced caspase potency assay in TF-1 cells [5]: 1 fold

B7: 320-381 (antibody, human IgG1, name in Kabat numbering, V domains shown)
VH: QVQLVQSGAEVKKPGASVKVSCKASGYTFTSYDINWVRQAPGQGLEWMGWLNPNSGNTGYAQKFQGRVTMTADRSTSTAYMELSSLRSEDTAVYYCAREVPETAAFEYWGQGTLVTVSS
VL: QSVLTQPPSVSGAPGQRVTISCTSSSSDIGAGLGVHWYQQLPGTAPKLLIEGYYNRPSGVPDRFSGSKSGTSASLTITGLLPEDEGDYYCQSYDGTLSASFGGGTKLTVLG
notes: human IgG1, lambda
TL1A Binding Level (Late) [1]: 1 RU
TL1A Binding Level (Early) [2]: 3 RU

B8: 320-379 (antibody, human IgG1, name in Kabat numbering, V domains shown)
VH: QVQLVQSGAEVKKPGASVKVSCKASGYTFTSYDINWVRQAPGQGLEWMGWLNPNSGNTGYAQKFQGRVTMTADRSTSTAYMELSSLRSEDTAVYYCAREVPETAAFEYWGQGTLVTVSS
VL: QSVLTQPPSVSGAPGQRVTISCTSSSSDIGAGLGVHWYQQLPGTAPKLLIEGYYNRPSGVPDRFSGSKSGTSASLTITGLLPEDEGDYYCQSYDGTLSYLFGGGTKLTVLG
notes: human IgG1, lambda
TL1A Binding Level (Late) [1]: 1 RU
TL1A Binding Level (Early) [2]: 3 RU

B9: 320-226 (antibody, human IgG1, name in Kabat numbering, V domains shown)
VH: QVQLVQSGAEVKKPGASVKVSCKASGYTFTSYDINWVRQAPGQGLEWMGWLNPNSGNTGYAQKFQGRVTMTADRSTSTAYMELSSLRSEDTAVYYCAREVPETAAFEYWGQGTLVTVSS
VL: QSVLTQPPSVSGAPGQRVTISCTSSSQDIGAGLGVHWYQQLPGTAPKLLIEGYYNRPSGVPDRFSGSKSGTSASLTITGLLPEDEGDYYCQSYDGTLSALFGGGTKLTVLG
notes: human IgG1, lambda
TL1A Binding Level (Late) [3]: 228 RU
TL1A Binding Level (Early) [4]: 250 RU
Antibody IC50, TL1A induced caspase potency assay in TF-1 cells [5]: 0.03 mg/L
Fold improvement over 320-179, TL1A induced caspase potency assay in TF-1 cells [5]: 1 fold

B10: 320-377 (antibody, human IgG1, name in Kabat numbering, V domains shown)
VH: QVQLVQSGAEVKKPGASVKVSCKASGYTFTSYDINWVRQAPGQGLEWMGWLNPNSGNTGYAQKFQGRVTMTADRSTSTAYMELSSLRSEDTAVYYCAREVPETAAFEYWGQGTLVTVSS
VL: QSVLTQPPSVSGAPGQRVTISCTSSSSDIGAGLGVHWYQQLPGTAPKLLIEGYYNRPSGVPDRFSGSKSGTSASLTITGLLPEDEGDYYCQSYDGTLSLLFGGGTKLTVLG
notes: human IgG1, lambda
TL1A Binding Level (Late) [1]: -1 RU
TL1A Binding Level (Early) [2]: -1 RU

B11: 320-219 (antibody, human IgG1, name in Kabat numbering, V domains shown)
VH: QVQLVQSGAEVKKPGASVKVSCKASGYTFTSYDINWVRQAPGQGLEWMGWLNPNSGNTGYAQKFQGRVTMTADRSTSTAYMELSSLRSEDTAVYYCAREVPETAAFEYWGQGTLVTVSS
VL: QSVLTQPPSVSGAPGQRVTISCTSSDSDIGAGLGVHWYQQLPGTAPKLLIEGYYNRPSGVPDRFSGSKSGTSASLTITGLLPEDEGDYYCQSYDGTLSALFGGGTKLTVLG
notes: human IgG1, lambda
TL1A Binding Level (Late) [3]: 220 RU
TL1A Binding Level (Early) [4]: 243 RU
Antibody IC50, TL1A induced caspase potency assay in TF-1 cells [5]: 0.02 mg/L
Fold improvement over 320-179, TL1A induced caspase potency assay in TF-1 cells [5]: 2 fold

B12: 320-245 (antibody, human IgG1, name in Kabat numbering, V domains shown)
VH: QVQLVQSGAEVKKPGASVKVSCKASGYTFTSYDINWVRQAPGQGLEWMGWLNPNSGNTGYAQKFQGRVTMTADRSTSTAYMELSSLRSEDTAVYYCAREVPETAAFEYWGQGTLVTVSS
VL: QSVLTQPPSVSGAPGQRVTISCTSSSSDHGAGLGVHWYQQLPGTAPKLLIEGYYNRPSGVPDRFSGSKSGTSASLTITGLLPEDEGDYYCQSYDGTLSALFGGGTKLTVLG
notes: human IgG1, lambda
TL1A Binding Level (Late) [3]: 26 RU
TL1A Binding Level (Early) [4]: 59 RU
Antibody IC50, TL1A induced caspase potency assay in TF-1 cells [5]: 0.54 mg/L
Fold improvement over 320-179, TL1A induced caspase potency assay in TF-1 cells [5]: 0 fold

B13: 320-378 (antibody, human IgG1, name in Kabat numbering, V domains shown)
VH: QVQLVQSGAEVKKPGASVKVSCKASGYTFTSYDINWVRQAPGQGLEWMGWLNPNSGNTGYAQKFQGRVTMTADRSTSTAYMELSSLRSEDTAVYYCAREVPETAAFEYWGQGTLVTVSS
VL: QSVLTQPPSVSGAPGQRVTISCTSSSSDIGAGLGVHWYQQLPGTAPKLLIEGYYNRPSGVPDRFSGSKSGTSASLTITGLLPEDEGDYYCQSYDGTLSWLFGGGTKLTVLG
notes: human IgG1, lambda
TL1A Binding Level (Late) [1]: -1 RU
TL1A Binding Level (Early) [2]: -1 RU

B14: 320-241 (antibody, human IgG1, name in Kabat numbering, V domains shown)
VH: QVQLVQSGAEVKKPGASVKVSCKASGYTFTSYDINWVRQAPGQGLEWMGWLNPNSGNTGYAQKFQGRVTMTADRSTSTAYMELSSLRSEDTAVYYCAREVPETAAFEYWGQGTLVTVSS
VL: QSVLTQPPSVSGAPGQRVTISCTSSSSDAGAGLGVHWYQQLPGTAPKLLIEGYYNRPSGVPDRFSGSKSGTSASLTITGLLPEDEGDYYCQSYDGTLSALFGGGTKLTVLG
notes: human IgG1, lambda
TL1A Binding Level (Late) [3]: 122 RU
TL1A Binding Level (Early) [4]: 179 RU
Antibody IC50, TL1A induced caspase potency assay in TF-1 cells [5]: 0.02 mg/L
Fold improvement over 320-179, TL1A induced caspase potency assay in TF-1 cells [5]: 1 fold
